According to the nanobody polyreactivity screen of Harvey et al. (2022):

Assay: yeast display, Sf9 membrane polyspecificity reagent, FACS + sequencing; frameworks hold sequencing errors
How it was run: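 Polyreactivity labels are assigned by the sorting gate from which each nanobody was recovered. The gates were low and high (top ~1%), set on anti-HA fluorescence for expression and streptavidin fluorescence for reagent binding. Before sorting, galactose-induced (36–48 hours) yeast display cells were stained for 1 hour at 4 °C with 10% biotinylated, detergent-solubilized Sf9 membrane reagent.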

For “QVQLVESGGGLVQAGGSLRLSCAASGRTFWTYAMGWYRQAPGKERELVASISKSGGSTYADSVKGRFTISRDNAKNTVYLQMNSLKPEDTAVYVCAAYPYFSKGWGWYPYDYWGQGTQVTVSS”, the “polyreactivity (PSR sort gate)” value was “low polyreactivity”.

With “QVQLVESGGGLVQAGGSLRLSCAASGRTFGYNAMGRYRQAPGKERELVAAIRYSGGSTYYADSVKGRFTISRDNAKNTVYLQMNSLKPEDTAVYYCAKESRRYYRGYYYWGQGTQVTVSS” the “polyreactivity (PSR sort gate)” value was “high polyreactivity”.

In the case of “QVQLVESGGGLVQAGGSLRLSCAASGITFNPNAMGWYRQAPGKERELVAVITYRGGSTYYADSVKGRFTISRDNAKNTVYLQMNSLKPEDTAVYYCAAQYIGWHLYWYDYWGQGTQVTVSS”, the “polyreactivity (PSR sort gate)” value is reported as “low polyreactivity”.

In the case of “QVQLVESVGGLVQAGGTLRLSCAATEGTIRSNAMGWYRQAPGKESELVAAISRGGSTYYADSVKGRFTISRDNAKNTVYLQMNSLKPEDTAVYYCNVAYYRSGHDNDYWGQGTQVTVSS”, the “polyreactivity (PSR sort gate)” value is reported as “high polyreactivity”.

With “QVQLVESGGGLVQEGGSLRLSCAASGRIFVGNAMGWYRQAPGKERELVASMTRGRRTNYADSVKGRFTISRDNAKNTVFFQMNSLKPVDTAVYYCNAPGVTRAYLVGYDYWGQGTQVTVSS” the “polyreactivity (PSR sort gate)” value was “low polyreactivity”.

With “QVQLVESGGGLVQAGGSLRLSCAASGITFPANAMGWYRQAPGKERELVADISESDGSTYYADSVKGRFTISLDNAKNTVYLQMNSLKPEDTAVYYCNAEWTSFDWGQGTQVTVSS” the “polyreactivity (PSR sort gate)” value was “low polyreactivity”.

In the case of “QVQLVESGGGLVQAGGSLRLSCAASGSIFGTNTMGWYRQAPGKERELVAAIRLSDSSTYYADSVKGRFTISRDNAKNTVYLQMNSLKPEDTAVYYCAVDYRAYHYYRYDYWGQGTQVTVSS”, the “polyreactivity (PSR sort gate)” value is reported as “low polyreactivity”.

In the case of “QVQLVESGGGLVQAGGSLRLSCAASGRILDYNAMGWYRQAPGKERELVAAITWRGGSTYYADSVKGRFTISRDNAKNTVYLQMNSLKPEDTAVYYCNARWSKTAHTRFGYWGQGTQVTVSS”, the “polyreactivity (PSR sort gate)” value is reported as “low polyreactivity”.

With “QVQLVESGGGLVQAGGSLRLSCAASGFIFWWYGMGWYRQSPGKEREFVAAITQSGSTYYADSVKGRFTISRDNAKNTVYLQMNSLKPEDTAVYYCAAVVGRRLYPRYDYWGQGTQVTVSS” the “polyreactivity (PSR sort gate)” value was “high polyreactivity”.

With “QDQHVESGGGLVQAGGSLRLSCAASGLTFAVYTMGWYRPAAGKERELVAAITWDGGITYYADSVKGRFTISRDNAKNTVYLQMNSLKPEDTAVYYCAADSREVSTTAYYYWGQGTQVTLSS” the “polyreactivity (PSR sort gate)” value was “low polyreactivity”.

For “QVQLVESGGGLVQAGGSLRLSCAASGSTSPAYAMGWYRQAPGKERELVAVITGSGASTYYADSVKGRFTISRDNAKNTVYLQMNSLKPEDTAVYYCAADVGFGVVFYDYWGQGTQVTVSS”, the “polyreactivity (PSR sort gate)” value was “low polyreactivity”.

For “QVQLVESGGGLVQAGGSLRLSCAASGSIFVIYTMGWYRQAPGKERELVAVITWSTGNTYYADSVKGRFTISRDNAKNTVYLQMNSLKPEDTAVYYCAARTTSRWRSGAYYYWGQGTQVTVSS”, the “polyreactivity (PSR sort gate)” value was “high polyreactivity”.

In the case of “QVQLQESAGGLVKAGGSLRLSCAASGNISNHNDMRWYRQAPGKEREFVAGITAGGNTNYADSVKGRFTISRDNAKNTVYLQMNSLKPEDTAVYYCAAYPDYAKSYGYWGQGTQATVSS”, the “polyreactivity (PSR sort gate)” value is reported as “low polyreactivity”.

In the case of “QVQLVESGGGLVHAGCSLRLSCDASGRIFKNYAMGWYRQAPGKERELVAAISWSGGRTYYADSVKGRFTISRDYAKNTVYLQMHRLKPEDTEVYYCATAARRGPTSIEPFGYGSWGQGTQVTVSS”, the “polyreactivity (PSR sort gate)” value is reported as “high polyreactivity”.

For “QVQLVESGGGLVQAGGSLRLSCAASGRIFWYYAMGWYRQAPGKERELVASIRWGGGNTYYADSVKGRFTISRDNAKNTVYLQMNSLKPEDTAVYYCAKSKVSPSGDFYYWGQGTQVTVSS”, the “polyreactivity (PSR sort gate)” value was “high polyreactivity”.

For “QVQRVESGGGLVQAGGRLRLSCAASGSTFRQYAMGWYRQAPGKERELVAAITGGGGSTYYADSVKGRFTISRDNAKNTVYLQMNSLKPEDTAVYYCNAVHRYERDYWGQGTQVTVSS”, the “polyreactivity (PSR sort gate)” value was “high polyreactivity”.

In the case of “QVQLVESGGGLVQAGGSLRLSCAASGYNFERNAMGWYRPAPGKERELVAAITDDGDDTYYADSVKGRFTISRDNAKNTVYLQMNSLKPEDTAVYYCAKDLYYGDYYYWGQGTQVTVSS”, the “polyreactivity (PSR sort gate)” value is reported as “low polyreactivity”.

With “QVQLVESGGGLVQAGGSLRLSCAASGFTFKGNAMGWYRQAPGKERELVATITQSAGSTYYADSVKGRFTISRDNAKNTVYLQMNSLKPEDTAVYYCNADPITLYYYSWYNYWGQGTQVTVSS” the “polyreactivity (PSR sort gate)” value was “low polyreactivity”.

For “QVQHVESGGALVQAGGILRLSCAASGYTFYVYAMGWYRQAPGKERELVAAISGGSNTYYADSVKGRFTISRDNGKNTVYLQMNSLKPEDTAVYYCAKSSTTYRQRARYDYWGQGTQVTVSS”, the “polyreactivity (PSR sort gate)” value was “high polyreactivity”.

In the case of “QVQLVESGGGLVQAGGSLSLSCAASGSTFVIYAMGWYRQAPGKERELVASIRGRTGSTYNADSVKGRFTISRDNAKNTVYLQMNSLKPEDTAVYYCAAKPGYKSKMDYWGQGTQVSVSS”, the “polyreactivity (PSR sort gate)” value is reported as “high polyreactivity”.

In the case of “QVQLVESGGGLVQAGGSLRLSSAASGRTFPHYAMGWYRQAPGKERELVAAISSSGGSTYYADSVKGRFTISRDNAKNTVYLQMNSLKPEETAVYSCAARYVDDGWKYAYWGQGTQVTVSS”, the “polyreactivity (PSR sort gate)” value is reported as “low polyreactivity”.

In the case of “QVQLVESGGGLVQAGGSLRLSCAPSGRILWFYAMGWYRQAPGKERELVAAISSSSGRTYYADSVKGRFTISRDNAKNTVYLQMYILKPEDSAVYYCAATHAVARPLEYDYWGQGTHVTVSS”, the “polyreactivity (PSR sort gate)” value is reported as “low polyreactivity”.

For “QVQHEESGGGLVQAGGRLRLSCAASGRIFKQYALGGYRQAPGKERELVAAISVRGGITYYADSVKGRFTISRDNAMNTVYLQMNSLKPEDTAVYYCAKRSFRTHTYDYWGHGTQVTVSS”, the “polyreactivity (PSR sort gate)” value was “low polyreactivity”.

With “QVQLVESGGGLVQAGGSLRLSCAASGSTFGAYVMGWYRQAPGTERELVAVISSGGSTKYADSVKGRFTISRDNAKNTVYLQMNSLKPEDTAVYYCSARRASRHRYYPFDYWGQGTQVTVSS” the “polyreactivity (PSR sort gate)” value was “high polyreactivity”.

For “QVQLVESGGGLVQAGGSLRLSCAASGLTSWYYAMGWYRQAPGKERELVAAITSGGSTYYADSVKGRFTISRDNAKNTVYLQMNSLKPEDTAVYYCAKKKRSYYYYPYDYWGQGTQVTVSS”, the “polyreactivity (PSR sort gate)” value was “high polyreactivity”.

With “QVQLVESGGGLVQAGGSLRLSCAASGRTFRYNTMGWYRQAPGKERELVAAITWSGGRTYYADSVKGRFTISRDNAKNTVYLQMNSLKPEDTAVYYCNADVPYSRSIYGFYYWGQGTQVTVSS” the “polyreactivity (PSR sort gate)” value was “high polyreactivity”.

In the case of “QVQLVESGGGLVQAGGSLRLSCAASGSIFDRYAMGWYRKAPGKERELVASITYSGGSTYYADSVKGRFTISRDNAKNTVYLQMKSLKPEDTAVYYCAKVIRLVGDYDYWGQGTQVTVSS”, the “polyreactivity (PSR sort gate)” value is reported as “low polyreactivity”.

For “QVQLVESGGGLVQAGGSLRLSCAASGRTYLYYVMGWYIQAPGKEREVVAAISYSGGSTYYADSVKGRFTISRDNAKNTVYLQMNSLKPEDTAVYYCTAVPVVRAGHGYDSWGQGTQVTVSS”, the “polyreactivity (PSR sort gate)” value was “high polyreactivity”.

For “QVQLVESGGGLVQAGGSLRLSCAASGNIFGHYTRGWYRQAPAKERELVAAISRTGGRTYYADSVKGRFTISRDNAKNTVYLQMNSLKPEDTAVYDCDADKGGTYFNGDSWGQGTQVTVSS”, the “polyreactivity (PSR sort gate)” value was “high polyreactivity”.

With “QVQLVESGGGLVQAGGSLRLSCAASGSSFNINAMGWYRQAPGKERELVAAISWSGDITYYADSVKGRFTISRDNAKNTVYLQLNSLKPEDTAVYYCNTDDPGNYWYAEYDYWGQGTQVTVSS” the “polyreactivity (PSR sort gate)” value was “low polyreactivity”.

For “QVHLVESGGGLVQAGGRLRLSCAASGSIFDRYAMGWYRQAPGKEREFVARIRSSTGGTDYADSVKGRFTISRDNAKNTVYLQMNILKPEDTAVYYCAASSSHYYYWIQGSYWGRGVYWGQGSQVTVSS”, the “polyreactivity (PSR sort gate)” value was “high polyreactivity”.

In the case of “QVHLVESGGGLVQAGGSLRLSCAASGSIFALYAMGWYRQAPGKERELVARISYSGGRTYYADSVKGRFTISRDNAKNTVYLQMNSLKPEDTAVYYCATRSFKWSFVGYDYWGQGTQVTVSS”, the “polyreactivity (PSR sort gate)” value is reported as “high polyreactivity”.

With “QVQLVESGGGLVQAGGSLRLSCAASGATFWYNAMRWYREAPGKERELVAAITWTGDGTYYADSVKGRFTISRDNAKNTVYLQMNSLKPEDTAVYYCAAAYFQWSTSIVGLDAWYDYWGQGSQVTVSS” the “polyreactivity (PSR sort gate)” value was “low polyreactivity”.

For “QVQLVESGGGLVQAGGSLRLSCAASGRTFTYYAMGWYRQAPGKERELVARISSSGSTNYADSVKGRFTISRDNAKNTVYLQMNSLKPEDTAVYYCAARYWRGPRYDYWGQGTQVTVSS”, the “polyreactivity (PSR sort gate)” value was “high polyreactivity”.

In the case of “QVHLVESGGGLVQAGGSLRLSCAASGSTKGNNAMGWYRQATGKERELVAAISTRGGSTYYADSVKGRFTISRDNAKNTVYLQMNSLKPEDTAVYYCAADFGQYHGAVRKMDYWGQGTQVTVSS”, the “polyreactivity (PSR sort gate)” value is reported as “low polyreactivity”.

In the case of “QVQLVESGGGLVQAGGSLRLSCAASGSTFPVYAMGWYRQEPGKERELVAAITSGVSTNYADSVKGRFTISRDNAKNTVYLQMNSLKPEDTAVYYCAKDFGLLPIRDDYWGQGTQVTVSS”, the “polyreactivity (PSR sort gate)” value is reported as “low polyreactivity”.

In the case of “QVQLVESGGGLVQAGGSLRLSCAASGSTRGYAMGWYRQAPGKEREMVAAIRSSGSTNYADSVKGRFTISRDNAKNTVYLQMNSLKPEDTAVYFCATDGHYLYSWYKYDYWGQGTQVTVSS”, the “polyreactivity (PSR sort gate)” value is reported as “low polyreactivity”.

In the case of “QVQLVESGGGLVQAGGSLRLSCAASGRTFEINAMGWYRQAPGKERELVAAITVSGGSTYYADSVKGRFTISRDNAKNTVYLQMNSLKPEDTAVYYCAVEIDYGQGKEVNSWGQGTQVTVSS”, the “polyreactivity (PSR sort gate)” value is reported as “low polyreactivity”.

In the case of “QDQLVESGGGLVQAGGSLRLSCAASGRTLTRYTMGWYRQAPGKERELVATISRSGGNTHYADSVKGRFTISRDTAKNTVYLQMNSLIPEDTAVYYCNAVRYAIYGYDYWGQGTQVTVSS”, the “polyreactivity (PSR sort gate)” value is reported as “high polyreactivity”.

With “QVQLVESGGGLVQAGGSLRLSCAASGRNFSGNTMGWYRQAPGKERELVAAITGRGGSTYYADSVKGRFTISRDNAKNTVYLQMNSLKPEDNAVYYCAALRYTFAGRFDYWGQGTQVTVSS” the “polyreactivity (PSR sort gate)” value was “high polyreactivity”.

With “QVQLVETGGGLVQAGGSLRLSCPASGRIFEDNAMGWYRQEPGKERELVAAIDFSGGDTYYADSVKGRFTISRDNAKNTVYLQMNSLKPEDTAVYYCAAGRSGWGYDSWGQGTQVTVSS” the “polyreactivity (PSR sort gate)” value was “low polyreactivity”.

In the case of “QVQLVESGGGLVQAGGSLRLSCAASGNTFRHNTMGWYRQAPGKERELVSTNYADSVKGRFTISRDNAKNTVYLQMNSLKPEDTAVYYCNADGTFGYEYWGHGTQVTVSS”, the “polyreactivity (PSR sort gate)” value is reported as “low polyreactivity”.

For “QVQLVESGGGLVQAGGSLRLSCAASGSIFPFYALGLYSQAPGTDRELVAGISNGDSPNYADSVKGRFTIARDNAKNSVYLQLNSLKPEDTGVYYCATDLPGGRYYGPYDYWGQGTQGTVSS”, the “polyreactivity (PSR sort gate)” value was “low polyreactivity”.
